This is an account of results in IntAct's records for PubMed 20427285.

B1: Protein Z-dependent protease inhibitor (Homo sapiens), Q9UK55 (parent)
chain: MKVVPSLLLSVLLAQVWLVPGLAPSPQSPETPAPQNQTSRVVQAPKEEEEDEQEASEEKASEEEKAWLMASRQQLAKETSNFGFSLLRKISMRHDGNMVFSPFGMSLAMTGLMLGATGPTETQIKRGLHLQALKPTKPGLLPSLFKGLRETLSRNLELGLTQGSFAFIHKDFDVKETFFNLSKRYFDTECVPMNFRNASQAKRLMNHYINKETRGKIPKLFDEINPETKLILVDYILFKGKWLTPFDPVFTEVDTFHLDKYKTIKVPMMYGAGKFASTFDKNFRCHVLKLPYQGNATMLVVLMEKMGDHLALEDYLTTDLVETWLRNMKTRNMEVFFPKFKLDQKYEMHELLRQMGIRRIFSPFADLSELSATGRNLQVSRVLQRTVIEVDERGTEAVAGILSEITAYSMPPVIKVDRPFHFMIYEETSGMLLFLGRVVNPTLL

In experiment [1] the parent is B1. The conditions noted are these: with proz_human PROZ.
In experiment [2] the parent is B1. The following applies: with fa10_human F10, P00742.
In experiment [3] the parent is B1. The following applies: with proz_human PROZ. This is another data set of the same source.

As for MKVVPSLLLSVLLAQVWLVPGLAPSPQSPETPAPQNQTSRVVQAPKEEEEDEQEASEEKASEEEKAWLMASRQQLAKETSNFGFSLLRKISMRHDGNMVFSPFGMSLAMTGLMLGATGPTETQIKRGLHLQALKPTKPGLLPSLFKGLRETLSRNLELGLTQGSFAFIHKDFDVKETFFNLSKRYFDTECVPMNFRNASQAKRLMNHYINKETRGKIPKLFDEINPETKLILVDYILFKGKWLTPFDPVFTEVDTFHLDKYKTIKVPMMYGAGKFASTFDKNFRCHVLKLPYQGNATMLVVLMEKMGDHLALEDYLTTDLVETWLRNMKTRNMEVFFPKFKLDQKYEMHELLRQMGIRRIFSPFADLSELSATGRNLQVSRVLQRTVIEVDERGTEAVAGILSAITAYSMPPVIKVDRPFHFMIYEETSGMLLFLGRVVNPTLL [E404A], the “effect of a mutation on the interaction” value in experiment [1] and in experiment [2] was “with no effect” throughout. As to MKVVPSLLLSVLLAQVWLVPGLAPSPQSPETPAPQNQTSRVVQAPKEEEEDEQEASEEKASEEEKAWLMASRQQLAKETSNFGFSLLRKISMRHDGNMVFSPFGMSLAMTGLMLGATGPTETQIKRGLHLQALKPTKPGLLPSLFKGLRETLSRNLELGLTQGSFAFIHKDFDVKETFFNLSKRYFDTECVPMNFRNASQAKRLMNHYINKETRGKIPKLFDEINPETKLILVDYILFKGKWLTPFDPVFTEVDTFHLDKYKTIKVPMMYGAGKFASTFDKNFRCHVLKLPYQGNATMLVVLMEKMGDHLALEDYLTTDLVETWLRNMKTRNMAVFFPKFKLDQKYEMHELLRQMGIRRIFSPFADLSELSATGRNLQVSRVLQRTVIEVDERGTEAVAGILSEITAYSMPPVIKVDRPFHFMIYEETSGMLLFLGRVVNPTLL [E334A], the “effect of a mutation on the interaction” value in experiment [1] and in experiment [2] was “with no effect” each time. With MKVVPSLLLSVLLAQVWLVPGLAPSPQSPETPAPQNQTSRVVQAPKEEEEDEQEASEEKASEEEKAWLMASRQQLAKETSNFGFSLLRKISMRHDGNMVFSPFGMSLAMTGLMLGATGPTETQIKRGLHLQALKPTKPGLLPSLFKGLRETLSRNLELGLTQGSFAFIHKDFDVKETFFNLSKRYFDTECVPMNFRNASQAKRLMNHYINKETRGKIPKLFDEINPETKLILVDYILFKGKWLTPFDPVFTEVDTFHLDKYKTIKVPMMYGAGKFASTFDKNFRCHVLKLPYQGNATMLVVLMEKMGDHLALEDYLTTDLVETWLRNMKTRNMAVFFPKFKLDQKYEMHELLRQMGIRRIFSPFADLSELSATGRNLQVSRVLQRTVIEVDERGTEAVAGILSAITAYSMPPVIKVDRPFHFMIYEETSGMLLFLGRVVNPTLL [E334A;E404A], the “effect of a mutation on the interaction” value in experiment [1] and in experiment [2] was “with no effect” each time. Turning to MKVVPSLLLSVLLAQVWLVPGLAPSPQSPETPAPQNQTSRVVQAPKEEEEDEQEASEEKASEEEKAWLMASRQQLAKETSNFGFSLLRKISMRHAGNMVFSPFGMSLAMTGLMLGATGPTETQIKRGLHLQALKPTKPGLLPSLFKGLRETLSRNLELGLTQGSFAFIHKDFDVKETFFNLSKRYFDTECVPMNFRNASQAKRLMNHYINKETRGKIPKLFDEINPETKLILVDYILFKGKWLTPFDPVFTEVDTFHLAAYKTIKVPMMYGAGKFASTFDKNFRCHVLKLPYQGNATMLVVLMEKMGDHLALEAYLTTDLVETWLRNMKTRNMEVFFPKFKLDQKYEMHELLRQMGIRRIFSPFADLSELSATGRNLQVSRVLQRTVIEVDERGTEAVAGILSEITAYSMPPVIKVDRPFHFMIYEETSGMLLFLGRVVNPTLL [D95A;D259A;K260A;D314A], the “effect of a mutation on the interaction” value in experiment [2] is on record as “with no effect”. On to MKVVPSLLLSVLLAQVWLVPGLAPSPQSPETPAPQNQTSRVVQAPKEEEEDEQEASEEKASEEEKAWLMASRQQLAKETSNFGFSLLRKISMRHDGNMVFSPFGMSLAMTGLMLGATGPTETQIKRGLHLQALKPTKPGLLPSLFKGLRETLSRNLELGLTQGSFAFIHKDFDVKETFFNLSKRYFDTECVPMNFRNASQAKRLMNHYINKETRGKIPKLFDEINPETKLILVDYILFKGKWLTPFDPVFTEVDTFHLDKYKTIKVPMMYGAGKFASTFDKNFRCHVLKLPYQGNATMLVVLMEKMGDHLALEDYLTTDLVETWLRNMKTRNMEVFFPKFKLDQKYEMHELLRQMGIRRIFSPFADLSELSATGRNLQVSRVLQRTVIEVDERGTEAVAGILSEITARSMPPVIKVDRPFHFMIYEETSGMLLFLGRVVNPTLL [Y408R], for which, in experiment [2], the “effect of a mutation on the interaction” value is “decreasing interaction strength”. Turning to MKVVPSLLLSVLLAQVWLVPGLAPSPQSPETPAPQNQTSRVVQAPKEEEEDEQEASEEKASEEEKAWLMASRQQLAKETSNFGFSLLRKISMRHAGNMVFSPFGMSLAMTGLMLGATGPTETQIKRGLHLQALKPTKPGLLPSLFKGLRETLSRNLELGLTQGSFAFIHKDFDVKETFFNLSKRYFDTECVPMNFRNASQAKRLMNHYINKETRGKIPKLFDEINPETKLILVDYILFKGKWLTPFDPVFTEVDTFHLAAYKTIKVPMMYGAGKFASTFDKNFRCHVLKLPYQGNATMLVVLMEKMGDHLALEDYLTTDLVETWLRNMKTRNMEVFFPKFKLDQKYEMHELLRQMGIRRIFSPFADLSELSATGRNLQVSRVLQRTVIEVDERGTEAVAGILSAITAYSMPPVIKVDRPFHFMIYEETSGMLLFLGRVVNPTLL [D95A;D259A;K260A;E404A], the “effect of a mutation on the interaction” value in experiment [1] and in experiment [3] was “disrupting interaction strength” in each case.
